Experimental data published in patent US20140348834A1 (published 2014).
Like-named read-outs stand apart in the source and are kept apart here.

Key:
[1] = target: T1, human IL-17A (human, UniProt Q16552 24-155); test: cell-based or functional assay
T1 sequence (Q16552 24-155): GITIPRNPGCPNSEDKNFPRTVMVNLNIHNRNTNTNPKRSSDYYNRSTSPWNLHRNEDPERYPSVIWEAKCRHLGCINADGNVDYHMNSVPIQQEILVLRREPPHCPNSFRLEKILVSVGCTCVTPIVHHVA

[2] = target: T1, human IL-17A; test: SPR (Biacore 3000), antibody captured by anti-Fc, antigen in solution;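 note: rates obtained by global fitting of a one-to-one Langmuir model over a series of antigen concentrations, Kd derived as koff over kon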
Experimental: (§1) The binding of antibodies to purified recombinant human, cyno, rat, mouse, rabbit IL-17 and human IL-17A/F were determined by surface plasmon resonance-based measurements with a Biacore® 3000 instrument (Biacore® AB, Uppsala, Sweden) using running HBS-EP (10 mM HEPES [pH 7.4], 150 mM NaCl, 3 mM EDTA, and 0.005% surfactant P20) at 25° C. […] Approximately 5000 RU of goat anti-mouse or anti-human IgG (Fcγ) fragment specific polyclonal antibody (Pierce Biotechnology Inc, Rockford, Ill.) diluted in 10 mM sodium acetate (pH 4.5) was directly immobilized across a CM5 research grade biosensor chip using a standard amine coupling kit according to manufacturer's instructions and procedures at 25 μg/ml. Unreacted moieties on the biosensor surface were blocked with ethanolamine. Modified carboxymethyl dextran surface in flowcell 2 and 4 was used as a reaction surface. Unmodified carboxymethyl dextran without goat anti-mouse or anti-human IgG in flow cell 1 and 3 was used as the reference surface. For kinetic analysis, rate equations derived from the 1:1 Langmuir binding model were fitted simultaneously to association and dissociation phases of all eight injections (using global fit analysis) with the use of Biaevaluation 4.0.1 software. Purified antibodies were diluted in HEPES-buffered saline for capture across goat anti-mouse or anti-human IgG specific reaction surfaces. Antibodies to be captured as a ligand (25 μg/ml) were injected over reaction matrices at a flow rate of 5 μl/min. The association and dissociation rate constants, kon (unit M-1s-1) and koff (unit s-1) were determined under a continuous flow rate of 25 μl/min. Rate constants were derived by making kinetic binding measurements at ten different antigen concentrations ranging from 10 nM to 200 nM. The equilibrium dissociation constant (unit M) of the reaction between antibodies and recombinant purified IL-17 antigens was then calculated from the kinetic rate constants by the following formula: KD=koff/kon. Binding was recorded as a function of time and kinetic rate constants are calculated. In this assay, on-rates as fast as 10⁶ M⁻¹ s⁻¹ and off-rates as slow as 10⁻⁶ s⁻¹ can be measured.

[3] = target: T2, human IL-17A/F (human, UniProt Q16552 24-155; Q96PD4 31-163); test: as above
T2 construct: Recombinant; biotinylated in the ELISA; also called hIL-17A/F; HuIL-17A/F
T2 sequence (Q16552 24-155, chain 1 of 2): as the sequence (Q16552 24-155) above
T2 sequence (Q96PD4 31-163, chain 2 of 2): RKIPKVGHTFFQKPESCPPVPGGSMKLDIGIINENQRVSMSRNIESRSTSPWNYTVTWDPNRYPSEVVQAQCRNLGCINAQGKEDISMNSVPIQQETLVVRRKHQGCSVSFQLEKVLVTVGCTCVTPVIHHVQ
Experimental: as §1

[4] = target: T3, cynomolgus monkey IL-17A (cynomolgus monkey, UniProt A0A2K5TTB0 24-155); test: as above
T3 construct: biotinylated in the ELISA; also called cyno IL-17; Cyno IL-17A
T3 sequence (A0A2K5TTB0 entry or part of it): as the sequence (Q16552 24-155) above, with T3A, P8S, N34S, I77V, N78K, P104R counted along it
Experimental: as §1

[5] = target: T4, rat IL-17A (rat, UniProt Q61453 18-150, limits assumed); test: as above
T4 construct: Purified recombinant protein in SPR
T4 sequence (looked up): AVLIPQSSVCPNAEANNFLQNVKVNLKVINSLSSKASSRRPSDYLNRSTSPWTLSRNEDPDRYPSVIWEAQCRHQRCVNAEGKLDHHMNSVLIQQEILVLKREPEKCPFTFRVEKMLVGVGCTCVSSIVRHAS
Experimental: as §1

[6] = target: T5, mouse IL-17A (mouse, UniProt Q62386 26-158, limits assumed); test: as above
T5 construct: Purified recombinant protein in SPR; also called MuIL-17A; murine IL-17A
T5 sequence (looked up): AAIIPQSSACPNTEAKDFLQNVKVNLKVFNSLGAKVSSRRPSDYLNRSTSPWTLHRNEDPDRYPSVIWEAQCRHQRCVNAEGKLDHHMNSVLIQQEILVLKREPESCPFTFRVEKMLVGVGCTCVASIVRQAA
Experimental: as §1

[7] = target: T1, human IL-17A; test: hIL17A ELISA
Experimental: The following protocol is used to characterize the binding of IL-17 antibodies to human IL-17 by enzyme-linked immunosorbent assay (ELISA). […] Coat ELISA plate with 50 μl per well of Goat anti Mouse IgG-Fc at 2 ug/ml, overnight at 4° C. […] Wash plate 3×PBS/Tween. […] Add 50 μl Mab diluted to 1 μg/ml in PBS/0.1% BSA to appropriate wells. Incubate 1 hr at room temperature (RT). […] Wash plate 3× with PBS/Tween. […] Add 50 μl of serial diluted biotin-IL17 (human IL-17, IL-17A/F, cyno IL-17) to appropriate wells. Incubate 1 hr at room temperature (RT). […] Wash plate 3× with PBS/Tween. […] Incubate 1 hr at RT. […] Wash plate 3× with PBS/Tween. […] Stop reaction with 50 μl 2N H₂SO₄. […] Read absorbance at 450 nm.

[8] = target: T1, human IL-17A; test: cell-based or functional assay; remark: listed apart in the source
[9] = target: T3, cynomolgus monkey IL-17A; test: cell-based or functional assay
[10] = target: T4, rat IL-17A; test: cell-based or functional assay
[11] = target: T6, human IL-17A (human, UniProt Q16552 24-155); test: cell-based or functional assay; remark: listed apart in the source
T6 sequence (Q16552 24-155 limits assumed): as the sequence (Q16552 24-155) above

[12] = target: human IL-17A/F (human, UniProt Q16552 24-155; Q96PD4 31-163); test: cell-based or functional assay
Target sequence in this assay (Q16552 24-155 limits assumed, chain 1 of 2): as the sequence (Q16552 24-155) above
Target sequence in this assay (Q96PD4 31-163 limits assumed, chain 2 of 2): as the sequence (Q96PD4 31-163, chain 2 of 2) above

[13] = target: cynomolgous monkey (cyno) IL-17A (cynomolgus monkey, UniProt A0A2K5TTB0 24-155); test: cell-based or functional assay
Chain of cynomolgous monkey (cyno) IL-17A (A0A2K5TTB0 entry or part of it): as the sequence (Q16552 24-155) above, with T3A, P8S, N34S, I77V, N78K, P104R counted along it

[14] = target: T7, rat IL-17A (rat, UniProt Q61453 18-150, limits assumed); test: cell-based or functional assay; remark: listed apart in the source
T7 sequence (looked up): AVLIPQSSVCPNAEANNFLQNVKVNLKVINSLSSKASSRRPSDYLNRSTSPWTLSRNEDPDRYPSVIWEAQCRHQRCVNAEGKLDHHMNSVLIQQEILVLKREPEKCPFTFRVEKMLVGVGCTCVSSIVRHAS

[15] = target: T6, human IL-17A; test: ELISA, captured antibody, serially diluted biotin-IL-17 (Example 1.5.1)
Experimental: The following protocol is used to characterize the binding of IL-17 antibodies to human IL-17 by enzyme-linked immunosorbent assay (ELISA). […] 1. Coat ELISA plate with 50 μl per well of Goat anti Mouse IgG-Fc at 2 ug/ml, overnight at 4° C. […] 2. Wash plate 3×PBS/Tween. […] 3. Add 50 μl Mab diluted to 1 μg/ml in PBS/0.1% BSA to appropriate wells. Incubate 1 hr at room temperature (RT). […] 4. Wash plate 3× with PBS/Tween. […] 5. Add 50 μl of serial diluted biotin-IL17 (human IL-17, IL-17A/F, cyno IL-17) to appropriate wells. Incubate 1 hr at room temperature (RT). […] 6. Wash plate 3× with PBS/Tween. […] 7. […] Incubate 1 hr at RT. […] 8. Wash plate 3× with PBS/Tween. […] 9. […] 10. Stop reaction with 50 μl 2N H₂SO₄. […] Read absorbance at 450 nm.

[16] = target: T8, human IL-17A (human, UniProt Q16552 24-155); test: SPR Biacore, captured binder
T8 construct: Purified recombinant; biotinylated in the ELISA; also called HuIL-17A; Hu IL-17A
T8 sequence (Q16552 24-155 limits assumed): as the sequence (Q16552 24-155) above
Experimental: as §1

[17] = target: T9, human IL-17A/F (human, UniProt Q16552 24-155; Q96PD4 31-163); test: SPR Biacore, captured binder
T9 construct: Heterodimer of IL-17A and IL-17F, purified recombinant; also called HuIL-17A/F; Hu IL-17A/F
T9 sequence (Q16552 24-155 limits assumed, chain 1 of 2): as the sequence (Q16552 24-155) above
T9 sequence (Q96PD4 31-163 limits assumed, chain 2 of 2): as the sequence (Q96PD4 31-163, chain 2 of 2) above
Experimental: as §1

[18] = target: cyno IL-17A (cynomolgus monkey, UniProt A0A2K5TTB0 24-155); test: SPR Biacore, captured binder
Chain of cyno IL-17A (A0A2K5TTB0 entry or part of it): as the sequence (Q16552 24-155) above, with T3A, P8S, N34S, I77V, N78K, P104R counted along it
Experimental: as §1

[19] = target: T10, rat IL-17A (rat, UniProt Q61453 18-150, limits assumed); test: SPR Biacore, captured binder
T10 sequence (looked up): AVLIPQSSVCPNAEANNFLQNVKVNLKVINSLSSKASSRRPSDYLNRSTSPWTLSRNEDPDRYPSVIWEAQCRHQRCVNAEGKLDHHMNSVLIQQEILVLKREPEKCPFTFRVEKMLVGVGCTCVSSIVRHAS
Experimental: as §1

[20] = target: T11, mouse IL-17A (mouse, UniProt Q62386 26-158, limits assumed); test: SPR Biacore, captured binder
T11 construct: also called MuIL-17A; murine IL17A HIS
T11 sequence (looked up): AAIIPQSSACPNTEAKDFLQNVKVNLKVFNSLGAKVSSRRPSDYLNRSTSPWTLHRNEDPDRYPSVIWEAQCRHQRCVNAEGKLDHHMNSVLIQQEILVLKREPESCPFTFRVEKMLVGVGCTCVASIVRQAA
Experimental: as §1

[21] = target: T12, rabbit IL-17A (rabbit); test: SPR Biacore, captured binder
T12 construct: also called RabIL-17A
Experimental: as §1

B1: ML109-10F7 (antibody, V domains shown)
VH: QVQLQQSGAELVRPGTSVTLSCKASGYIFTDYEIHWVKQTPVHGLEWIGVNDPESGGTFYNQKFDGKAELTADKSSSTAYMELRSLTSEDSGVYYCTRYYRYESFYGMDYWGQGTSITVSS
VL: QIVLTQSPAIMSASPGEKVTMTCSASSSISYIYWFQQKPGTSPKRWIYATFELASGVPARFSGSGSGTSYSLTISSMEAEDAATYYCHQRSSYPWTFGGGSKLEIKR
notes: Hybridoma-derived murine mAb; also called 10F7.3D1
Potency (pM), IL-17-driven IL-6 production in HS27 cells [1]: 54 pM | Kd [2]: 0.0626 nM | koff [2]: 0.000159 s⁻¹ | kon [2]: 2.54e+06 M⁻¹ s⁻¹ | Kd [3]: 0.673 nM | koff [3]: 0.000686 s⁻¹ | kon [3]: 1.02e+06 M⁻¹ s⁻¹ | Kd [4]: 0.0684 nM | koff [4]: 0.000145 s⁻¹ | kon [4]: 2.12e+06 M⁻¹ s⁻¹ | Kd [5]: 0.197 nM | koff [5]: 0.000623 s⁻¹ | kon [5]: 3.17e+06 M⁻¹ s⁻¹ | Kd [6]: 0.221 nM | koff [6]: 0.000354 s⁻¹ | kon [6]: 1.6e+06 M⁻¹ s⁻¹

B2: IL17-h5C5.3 (antibody, V domains shown)
VH: EVQLVQSGAEVKKPGASVKVSCKASGYTFTDYEFHWVRQAPGQGLEWIGVIHPGNGGTAYNQNFRDRATLTADKSTSTAYMELSSLRSEDTAVYYCTRFLTYEGYFDYWGQGTLVTVSS
VL: NIVMTQTPKFLLVSPGDRVTITCKASQSVSIDVGWFQQKPGQSPKLLIYHASNRYTGVPDRFTGSGYGTDFTFTVNTVQAEDLAVYFCQQDYSSPYTFGGGTKLELKR
notes: IgG; constant regions not specified
EC50 [7]: 1.37 nM | Potency (pM), IL-17-driven IL-6 production in HS27 cells [8]: 5 pM | Potency (pM), IL-17-driven IL-6 production in HS27 cells [9]: 12 pM | Potency (pM), IL-17 and TNF-alpha-driven IL-6 production in NIH3T3 cells [10]: 2520 pM

B3: m5C5.hIgG1 (antibody, V domains shown)
VH: QVQLQQSGAELVRPGASVKLSCKALGYTFTDYEFHWVKQTPVHGLEWIGVIHPGNGGTAYNQNFRDKATLTADKSSSTAYMELSSLTSEDSGVYYCTRFLTYEGYFDYWGQGTALTVSS
VL: NIVMTQTPKFLLVSPGDRVTITCKASQSVSIDVGWFQQKPGQSPKLLIYHASNRYTGVPDRFTGSGYGTDFTFTVNTVQAEDLAVYFCQQDYSSPYTFGGGTKLELKR
Potency (pM), IL-17-driven IL-6 production in HS27 cells [8]: 11 pM | Potency (pM), IL-17 and TNF-alpha-driven IL-6 production in NIH3T3 cells [10]: 4910 pM

B4: IL17-B6-15 (antibody, V domains shown)
VH: EVQLVQSGAEVKKPGESLKISCKASGGSFSGYGTSWVRQAPGQGLEWMGGITHFFGAVDYAQKFQGRVTITADESTTTAYMELSGLTSDDTAVYYCARDPNEFWNGYYATHDFDYWGQGTTVTVSS
VL: EIVLTQSPDFQSVTPKEKVTITCRASQNIGAELHWYQQKPDQSPKLLIKYASHSISGVPSRFSGSGSGTDFTLTINGLEAEDAGTYYCHQTDRLPYSFGPGTKVDIK
notes: also called pJP245 B6.1 #15VH / pJP246 B6.1 #15Vk
Potency (pM), IL-17-driven IL-6 production in HS27 cells [11]: 24 pM | Potency (pM), IL-17-driven IL-6 production in HS27 cells [12]: 162 pM | Potency (pM), IL-17-driven IL-6 production in HS27 cells [13]: 10 pM | Potency (pM), IL-17 and TNF-induced IL-6 secretion from NIH3T3 cells [14]: 17 pM | EC50 [15]: 0.13 nM

B5: IL17-B6-11 (antibody, V domains shown)
VH: EVQLVQSGAEVKKPGSSVKVSCKASGGSFLSYGFSWVRQAPGQGLEWMGGITPFFGFADYAQKFQGRVTITADESTTTAYMELSGLTSDDTAVYYCAREPNDFWNGYYTTHHFDYWGQGTTVTVSS
VL: DVVMTQSPDFQSVTPKEKVTITCRASQNIGSALHWYQQKPDQSPKLLIKYASQSISGVPSRFSGSGSGTDFTLTINGLEAEDAGTYYCHQSTSLPHTFGQGTKLDIKR
Potency (pM), IL-17-driven IL-6 production in HS27 cells [11]: 20 pM | Potency (pM), IL-17-driven IL-6 production in HS27 cells [12]: 71 pM | Potency (pM), IL-17-driven IL-6 production in HS27 cells [13]: 33 pM | Potency (pM), IL-17 and TNF-induced IL-6 secretion from NIH3T3 cells [14]: 6100 pM | EC50 [15]: 0.058 nM

B6: IL17-B6-16 (antibody, V domains shown)
VH: EVQLVQSGAEVKMPGSSLKISCKASGGSFRGYGISWVRQAPGQGLEWMGGITPFFGWADYAQKFQGRVTITADESTTTAYMELSGLTSDDTAVYYCARDPNEFWNGYYDTHHFDYWGQGTTVTVSS
VL: EIVLTQSPDFQSVTPKEKVTITCRASQDIGSALHWYQQKPDQSPKLLIKYASHSVSGVPSRFSGSGSGTDFTLTINGLEAEDAGTYYCHQSDILPHTFGPGTKVDIK
notes: also called pJP247 B6.1 #16VH / pJP248 B6.1 #16Vk
Potency (pM), IL-17-driven IL-6 production in HS27 cells [11]: 26 pM | Potency (pM), IL-17-driven IL-6 production in HS27 cells [12]: 114 pM | Potency (pM), IL-17-driven IL-6 production in HS27 cells [13]: 13 pM | Potency (pM), IL-17 and TNF-induced IL-6 secretion from NIH3T3 cells [14]: 167 pM | EC50 [15]: 0.16 nM

B7: IL17-B6-5 (antibody, V domains shown)
VH: EVQLVQSGAEVKKPGESVKISCKASGGSFRSYGISWVRQAPGQGLEWMGGITHFFGITDYAQKFQGRVTITADESTTTAYMELSGLTSDDTAVYYCAREPNDFWNGYYDTHDFDSWGQGTTVTVSS
VL: EIVLTQSPDFQSVTPKEKVTITCRASQNIGSELHWYQQKPDQSPKLLIKYASHSISGVPSRFSGSGSGTDFTLTINGLEAEDAATYYCHQSDTLPHTFGQGTKVDIK
notes: also called pJP243 B6.1 #5VH / pJP244 B6.1 #5VK
Kd [16]: 0.00318 nM | koff [16]: 2.29e-05 s⁻¹ | kon [16]: 7.2e+06 M⁻¹ s⁻¹ | Kd [17]: 0.00222 nM | koff [17]: 2.95e-05 s⁻¹ | kon [17]: 1.33e+07 M⁻¹ s⁻¹ | Kd [18]: 0.00539 nM | koff [18]: 6.52e-05 s⁻¹ | kon [18]: 1.21e+07 M⁻¹ s⁻¹ | Kd [19]: 0.00905 nM | koff [19]: 5.54e-05 s⁻¹ | kon [19]: 6.12e+06 M⁻¹ s⁻¹ | Kd [20]: 0.0395 nM | koff [20]: 0.000102 s⁻¹ | kon [20]: 2.58e+06 M⁻¹ s⁻¹ | Kd [21]: 0.00317 nM | koff [21]: 2.23e-05 s⁻¹ | kon [21]: 7.03e+06 M⁻¹ s⁻¹

B8: IL17-B6-17 (antibody, V domains shown)
VH: EVQLVQSGAEVKKPGSSVKVSCKASGGSFGGYGIGWVRQAPGQGLEWMGGITPFFGFADYAQKFQGRVTITADESTTTAYMELSGLTSDDTAVYYCARDPNEFWNGYYSTHDFDSWGQGTTVTVSS
VL: EIVLTQSPDFQSVTPKEKVTITCRASQDIGSELHWYQQKPDQPPKLLIKYASHSTSGVPSRFSGSGSGTDFTLTINGLEAEDAGTYYCHQTDSLPYTFGPGTKVDIK
Kd [16]: 0.000785 nM | koff [16]: 3.1e-06 s⁻¹ | kon [16]: 3.95e+06 M⁻¹ s⁻¹ | Kd [17]: 0.0017 nM | koff [17]: 1.23e-05 s⁻¹ | kon [17]: 7.23e+06 M⁻¹ s⁻¹ | Kd [18]: 0.00103 nM | koff [18]: 1.05e-05 s⁻¹ | kon [18]: 1.02e+07 M⁻¹ s⁻¹ | Kd [19]: 0.00964 nM | koff [19]: 5.91e-05 s⁻¹ | kon [19]: 6.13e+06 M⁻¹ s⁻¹ | Kd [20]: 0.113 nM | koff [20]: 0.000169 s⁻¹ | kon [20]: 1.49e+06 M⁻¹ s⁻¹ | Kd [21]: 0.00351 nM | koff [21]: 3.36e-05 s⁻¹ | kon [21]: 9.58e+06 M⁻¹ s⁻¹
